According to patent US20190233493A1 (Sanofi, published 2019):
*1 amine or outer side, *2 acyl side, *3 side chain or, on linkers, in order; H or OH if unused. Side-chain parts run from the residue outwards. [ ]: non-standard residue; d: D form. The star is where a group is joined. PEG12 = NCCOCCOCCOCCOCCOCCOCCOCCOCCOCCOCCOCCOCCC(=O)O; γGlu = O=C(O)[C@H](CCC(=O)[*:2])N[*:1]; Stearoyl = CCCCCCCCCCCCCCCCCC(=O)*; Palmitoyl = CCCCCCCCCCCCCCCC(=O)*; Nle = CCCC[C@H](N)C(=O)O; Aib = CC(C)(N)C(=O)O

T1: RXFP1 receptor (UniProt Q9HBX9 1-757, limits assumed)
T1 sequence (looked up): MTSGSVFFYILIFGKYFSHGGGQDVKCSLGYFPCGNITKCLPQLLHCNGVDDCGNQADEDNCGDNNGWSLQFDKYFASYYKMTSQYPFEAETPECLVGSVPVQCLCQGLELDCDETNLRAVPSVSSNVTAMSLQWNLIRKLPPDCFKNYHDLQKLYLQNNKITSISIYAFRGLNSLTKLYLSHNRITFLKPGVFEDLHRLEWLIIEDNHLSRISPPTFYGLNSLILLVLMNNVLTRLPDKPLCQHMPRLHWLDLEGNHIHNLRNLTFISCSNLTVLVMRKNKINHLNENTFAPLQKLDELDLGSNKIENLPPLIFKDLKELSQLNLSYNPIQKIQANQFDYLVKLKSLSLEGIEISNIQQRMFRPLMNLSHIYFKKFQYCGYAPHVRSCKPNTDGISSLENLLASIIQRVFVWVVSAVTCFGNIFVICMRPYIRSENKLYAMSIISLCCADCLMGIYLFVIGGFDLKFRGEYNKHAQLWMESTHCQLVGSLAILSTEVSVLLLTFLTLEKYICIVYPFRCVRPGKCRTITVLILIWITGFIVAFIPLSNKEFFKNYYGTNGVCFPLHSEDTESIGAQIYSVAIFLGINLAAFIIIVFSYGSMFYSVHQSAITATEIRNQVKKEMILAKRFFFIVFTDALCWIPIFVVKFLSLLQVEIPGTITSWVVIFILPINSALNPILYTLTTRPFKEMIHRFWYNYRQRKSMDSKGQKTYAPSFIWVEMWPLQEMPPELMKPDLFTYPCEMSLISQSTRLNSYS


Molecular target: T1, RXFP1 receptor
Assay: cell-based or functional assay

| Binder | EC50 (nM), OVCAR 5 cells (cAMP) | EMax, OVCAR 5 cells (cAMP) |
| --- | --- | --- |
| Ac-LEGREKVRAK(Ac)I[Aib][Aib]EG[Nle]STWS[Aib]RKK(Ac)[PEG12]K([γGlu-γGlu-γGlu-Palmitoyl])-NH2 (SMILES CCCCCCCCCCCCCCCC(=O)N[C@@H](CCC(=O)N[C@@H](CCC(=O)N[C@@H](CCC(=O)NCCCC[C@H](NC(=O)CCOCCOCCOCCOCCOCCOCCOCCOCCOCCOCCOCCOCCNC(=O)[C@H](CCCCNC(C)=O)NC(=O)[C@H](CCCCN)NC(=O)[C@H](CCCNC(=N)N)NC(=O)C(C)(C)NC(=O)[C@H](CO)NC(=O)[C@H](Cc1c[nH]c2ccccc12)NC(=O)[C@@H](NC(=O)[C@H](CO)NC(=O)[C@H](CCCC)NC(=O)CNC(=O)[C@H](CCC(=O)O)NC(=O)C(C)(C)NC(=O)C(C)(C)NC(=O)[C@@H](NC(=O)[C@H](CCCCNC(C)=O)NC(=O)[C@H](C)NC(=O)[C@H](CCCNC(=N)N)NC(=O)[C@@H](NC(=O)[C@H](CCCCN)NC(=O)[C@H](CCC(=O)O)NC(=O)[C@H](CCCNC(=N)N)NC(=O)CNC(=O)[C@H](CCC(=O)O)NC(=O)[C@H](CC(C)C)NC(C)=O)C(C)C)[C@@H](C)CC)[C@@H](C)O)C(N)=O)C(=O)O)C(=O)O)C(=O)O) [peptide of SEQ ID NO: 26] | 0.57 nM | 85% |
| Ac-LEGREKVR[Aib]K(Ac)I[Aib][Aib]EG[Nle]STWS[Aib]RKK(Ac)[PEG12]K([γGlu-γGlu-γGlu-Palmitoyl])-NH2 (SMILES CCCCCCCCCCCCCCCC(=O)N[C@@H](CCC(=O)N[C@@H](CCC(=O)N[C@@H](CCC(=O)NCCCC[C@H](NC(=O)CCOCCOCCOCCOCCOCCOCCOCCOCCOCCOCCOCCOCCNC(=O)[C@H](CCCCNC(C)=O)NC(=O)[C@H](CCCCN)NC(=O)[C@H](CCCNC(=N)N)NC(=O)C(C)(C)NC(=O)[C@H](CO)NC(=O)[C@H](Cc1c[nH]c2ccccc12)NC(=O)[C@@H](NC(=O)[C@H](CO)NC(=O)[C@H](CCCC)NC(=O)CNC(=O)[C@H](CCC(=O)O)NC(=O)C(C)(C)NC(=O)C(C)(C)NC(=O)[C@@H](NC(=O)[C@H](CCCCNC(C)=O)NC(=O)C(C)(C)NC(=O)[C@H](CCCNC(=N)N)NC(=O)[C@@H](NC(=O)[C@H](CCCCN)NC(=O)[C@H](CCC(=O)O)NC(=O)[C@H](CCCNC(=N)N)NC(=O)CNC(=O)[C@H](CCC(=O)O)NC(=O)[C@H](CC(C)C)NC(C)=O)C(C)C)[C@@H](C)CC)[C@@H](C)O)C(N)=O)C(=O)O)C(=O)O)C(=O)O) [peptide of SEQ ID NO: 27] | 0.3 nM | 86% |
| Ac-LEGREKVRAK(Ac)I[Aib][Aib]EGMSTWS[Aib]RK[PEG12]K([γGlu-γGlu-γGlu-Palmitoyl])-NH2 (SMILES CCCCCCCCCCCCCCCC(=O)N[C@@H](CCC(=O)N[C@@H](CCC(=O)N[C@@H](CCC(=O)NCCCC[C@H](NC(=O)CCOCCOCCOCCOCCOCCOCCOCCOCCOCCOCCOCCOCCNC(=O)[C@H](CCCCN)NC(=O)[C@H](CCCNC(=N)N)NC(=O)C(C)(C)NC(=O)[C@H](CO)NC(=O)[C@H](Cc1c[nH]c2ccccc12)NC(=O)[C@@H](NC(=O)[C@H](CO)NC(=O)[C@H](CCSC)NC(=O)CNC(=O)[C@H](CCC(=O)O)NC(=O)C(C)(C)NC(=O)C(C)(C)NC(=O)[C@@H](NC(=O)[C@H](CCCCNC(C)=O)NC(=O)[C@H](C)NC(=O)[C@H](CCCNC(=N)N)NC(=O)[C@@H](NC(=O)[C@H](CCCCN)NC(=O)[C@H](CCC(=O)O)NC(=O)[C@H](CCCNC(=N)N)NC(=O)CNC(=O)[C@H](CCC(=O)O)NC(=O)[C@H](CC(C)C)NC(C)=O)C(C)C)[C@@H](C)CC)[C@@H](C)O)C(N)=O)C(=O)O)C(=O)O)C(=O)O) [peptide of SEQ ID NO: 25] | 1.21 nM | 95% |
| Ac-LEGREKVR[Aib]QI[Aib][Aib]EG[Nle]STWS[Aib]RKK(Ac)[PEG12]K([γGlu-γGlu-γGlu-Palmitoyl])-NH2 (SMILES CCCCCCCCCCCCCCCC(=O)N[C@@H](CCC(=O)N[C@@H](CCC(=O)N[C@@H](CCC(=O)NCCCC[C@H](NC(=O)CCOCCOCCOCCOCCOCCOCCOCCOCCOCCOCCOCCOCCNC(=O)[C@H](CCCCNC(C)=O)NC(=O)[C@H](CCCCN)NC(=O)[C@H](CCCNC(=N)N)NC(=O)C(C)(C)NC(=O)[C@H](CO)NC(=O)[C@H](Cc1c[nH]c2ccccc12)NC(=O)[C@@H](NC(=O)[C@H](CO)NC(=O)[C@H](CCCC)NC(=O)CNC(=O)[C@H](CCC(=O)O)NC(=O)C(C)(C)NC(=O)C(C)(C)NC(=O)[C@@H](NC(=O)[C@H](CCC(N)=O)NC(=O)C(C)(C)NC(=O)[C@H](CCCNC(=N)N)NC(=O)[C@@H](NC(=O)[C@H](CCCCN)NC(=O)[C@H](CCC(=O)O)NC(=O)[C@H](CCCNC(=N)N)NC(=O)CNC(=O)[C@H](CCC(=O)O)NC(=O)[C@H](CC(C)C)NC(C)=O)C(C)C)[C@@H](C)CC)[C@@H](C)O)C(N)=O)C(=O)O)C(=O)O)C(=O)O) [peptide of SEQ ID NO: 28] | 4.64 nM | 78% |
| Ac-LEGREKVRAQI[Aib][Aib]EGMSTWS[Aib]RK[PEG12]K([γGlu-γGlu-γGlu-Palmitoyl])-NH2 (SMILES CCCCCCCCCCCCCCCC(=O)N[C@@H](CCC(=O)N[C@@H](CCC(=O)N[C@@H](CCC(=O)NCCCC[C@H](NC(=O)CCOCCOCCOCCOCCOCCOCCOCCOCCOCCOCCOCCOCCNC(=O)[C@H](CCCCN)NC(=O)[C@H](CCCNC(=N)N)NC(=O)C(C)(C)NC(=O)[C@H](CO)NC(=O)[C@H](Cc1c[nH]c2ccccc12)NC(=O)[C@@H](NC(=O)[C@H](CO)NC(=O)[C@H](CCSC)NC(=O)CNC(=O)[C@H](CCC(=O)O)NC(=O)C(C)(C)NC(=O)C(C)(C)NC(=O)[C@@H](NC(=O)[C@H](CCC(N)=O)NC(=O)[C@H](C)NC(=O)[C@H](CCCNC(=N)N)NC(=O)[C@@H](NC(=O)[C@H](CCCCN)NC(=O)[C@H](CCC(=O)O)NC(=O)[C@H](CCCNC(=N)N)NC(=O)CNC(=O)[C@H](CCC(=O)O)NC(=O)[C@H](CC(C)C)NC(C)=O)C(C)C)[C@@H](C)CC)[C@@H](C)O)C(N)=O)C(=O)O)C(=O)O)C(=O)O) [peptide of SEQ ID NO: 23] | 3.62 nM | 89% |
| Ac-LEGREKVRAQI[Aib][Aib]EG[Nle]STWS[Aib]RK[PEG12]K([γGlu-γGlu-γGlu-Palmitoyl])-NH2 (SMILES CCCCCCCCCCCCCCCC(=O)N[C@@H](CCC(=O)N[C@@H](CCC(=O)N[C@@H](CCC(=O)NCCCC[C@H](NC(=O)CCOCCOCCOCCOCCOCCOCCOCCOCCOCCOCCOCCOCCNC(=O)[C@H](CCCCN)NC(=O)[C@H](CCCNC(=N)N)NC(=O)C(C)(C)NC(=O)[C@H](CO)NC(=O)[C@H](Cc1c[nH]c2ccccc12)NC(=O)[C@@H](NC(=O)[C@H](CO)NC(=O)[C@H](CCCC)NC(=O)CNC(=O)[C@H](CCC(=O)O)NC(=O)C(C)(C)NC(=O)C(C)(C)NC(=O)[C@@H](NC(=O)[C@H](CCC(N)=O)NC(=O)[C@H](C)NC(=O)[C@H](CCCNC(=N)N)NC(=O)[C@@H](NC(=O)[C@H](CCCCN)NC(=O)[C@H](CCC(=O)O)NC(=O)[C@H](CCCNC(=N)N)NC(=O)CNC(=O)[C@H](CCC(=O)O)NC(=O)[C@H](CC(C)C)NC(C)=O)C(C)C)[C@@H](C)CC)[C@@H](C)O)C(N)=O)C(=O)O)C(=O)O)C(=O)O) [peptide of SEQ ID NO: 24] | 3.2 nM | 74% |
| Ac-LEGREKVRAQI[Aib][Aib]EG[Nle]STWS[Aib]RKK([γGlu-Stearoyl])-NH2 (SMILES CCCCCCCCCCCCCCCCCC(=O)N[C@@H](CCC(=O)NCCCC[C@H](NC(=O)[C@H](CCCCN)NC(=O)[C@H](CCCNC(=N)N)NC(=O)C(C)(C)NC(=O)[C@H](CO)NC(=O)[C@H](Cc1c[nH]c2ccccc12)NC(=O)[C@@H](NC(=O)[C@H](CO)NC(=O)[C@H](CCCC)NC(=O)CNC(=O)[C@H](CCC(=O)O)NC(=O)C(C)(C)NC(=O)C(C)(C)NC(=O)[C@@H](NC(=O)[C@H](CCC(N)=O)NC(=O)[C@H](C)NC(=O)[C@H](CCCNC(=N)N)NC(=O)[C@@H](NC(=O)[C@H](CCCCN)NC(=O)[C@H](CCC(=O)O)NC(=O)[C@H](CCCNC(=N)N)NC(=O)CNC(=O)[C@H](CCC(=O)O)NC(=O)[C@H](CC(C)C)NC(C)=O)C(C)C)[C@@H](C)CC)[C@@H](C)O)C(N)=O)C(=O)O) [peptide of SEQ ID NO: 3] | 28.5 nM | 93% |
